# Source: US20190233498A1 (H LUNDBECK A S, published 2019)
# Substitutions are numbered along the chain they refer to.
# T1: human PACAP38 (human, not fully specified; C-terminal lysine is amidated; N-terminal or C-terminal biotin in the HTRF and PC-12 cell binding assays)
# T1 peptide: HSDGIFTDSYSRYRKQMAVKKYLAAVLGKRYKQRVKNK
# T2: human VIP (human)
# T2 construct: also called Vasoactive Intestinal Peptide
# T2 peptide: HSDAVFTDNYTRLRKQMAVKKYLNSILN
# T3: human PACAP27 (human, C-terminal leucine is amidated; 125I-labelled in Example 10)
# T3 peptide: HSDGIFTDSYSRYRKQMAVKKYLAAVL
# B1: anti-PACAP antibody Ab15 (antibody, human IgG1, kappa, N297A, V domains shown)
# VH: QSVEASGGHLVTPGTPLTLTCTVSGFSLSSAAMNWVRQAPGKGLEWIGSVDERQNKYYASWAKGRFTISRTSSTTVNLKMTSPTTEDTATYFCARGGGEFFIWGQGTLVTVSS
# VL: AQVLTQTPSSVSAAVGGTVTINCQSSQSVYSNNRLSWYQQKPGQPPNLLIYEASSLASGVPSRFSGSGSGTQFTLTISDLECDDAATYYCAGAYNTGIYGFGGGTEVVVKR
# notes: full-length rabbit/human chimeric antibody
# B2: anti-PACAP antibody Ab19 (antibody, human IgG1, kappa, N297A, V domains shown)
# VH: QSVEASGGRLVTPGTPLTLTCTVSGFSLSSATMNWVRQAPGKGLEWIGLIGGNDERYYASWAKGRFTISKTSSTTVDLKMTSPTTEDTATYFCARGGGEFFIWGPGTLVTVSS
# VL: B1 VL with Q27E, S31T, N33D, N47K, S55K, S62P, N95S, G97S, Y99H
# notes: as for B1
# B3: anti-PACAP antibody Ab4 (antibody, human IgG1, kappa, N297A, V domains shown)
# VH: QSVEESGGRLVTPGTPLTLTCTVSGFSLSSYDMSWVRQAPGKGLEYIGIINTNDDTWYASWVKGRFTISKTSSTTVDLKMTSLTTEDTATYFCARISDAYVFDYAYYFTLWGQGTLVTVSS
# VL: ALVMTQTPSSVSAAVGGTVTINCLASQNIYNSLAWYQQKPGQPPKLLIYRASTLASGVSSRFKGSGSGTQFTLTISGVECADAATYYCQQGAGADNIGNPFGGGTEVVVKR
# notes: as for B1
# B4: anti-PACAP antibody Ab16 (antibody, human IgG1, kappa, N297A, V domains shown)
# VH: QSVEESGGRLVTPGTPLTLTCTVSGFSLSSAAMSWVRQAPGKGLEWIGIIDDSGNTYYASWAKARFTISKTSSTTVDLKMTSPTTEDTATYFCARGGGEFFIWGPGTLVTVSS
# VL: DPVLTQTPSSVSAAVGGTVTINCQSSQSVYNNKWLSWYQQKPGQSPKFLIYQASNLASGVPSRFKGSGSGTQFTLTISDLECDDGATYYCAGGYRGNVCGFGGGTEVVVKR
# notes: as for B1
# B5: anti-PACAP antibody Ab18 (antibody, human IgG1, kappa, N297A, V domains shown)
# VH: B4 VH with M33L, D52K, S53G, G54V, N55M, T56S, A64G, M80V, P105Q
# VL: B4 VL with D1A, P2Q, Q27K, K33N, S45P, G85A, R95S, V98I, C99V
# notes: as for B1
# B6: anti-PACAP antibody Ab17 (antibody, human IgG1, kappa, N297A, V domains shown)
# VH: B4 VH with S34N, I50F, D52P, S53Y, G54S, N55S, A64G
# VL: AQVLTQTPSSVSAAVGGTVTINCQSSQSVYKNKYLSWYQQKVGQPPKFLIYQASNLASGVPSRFKGSGSGTQFTLTISDLECDDAATYYCAGGYSGNMVDFGGGTEVVVKR
# notes: as for B1
# B7: anti-PACAP antibody Ab5 (antibody, human IgG1, kappa, N297A, V domains shown)
# VH: QSVEESGGRLVTPGTPLTLTCTVSGFSLSSYAMIWVRQAPGKGLEWIGIIYDNGDTYYASWAKGRFTISKTSTTVYLKIASPTTEDTATYFCAREPGSTTQNDLWGQGTLVTVSS
# VL: DVVMTQTPASVSEPVGGTVTIKCQASENIYNSLLWYQQKPGQPPKLLIYRASTLASGVSSRFKGSGSGTEFTLTISDLECADAATYYCQNYYNIWTNGAAFGGGTEVVVKR
# notes: as for B1
# Molecular target: T1, human PACAP38
# Assay: cell-based or functional assay
row,Binder,"IC50, 1 nM PACAP38-induced human VPAC2-R mediated cAMP increase [nM]"
1,B1,22.9
2,B2,0.954
3,B3,0.218
4,B4,1.15
5,B5,0.285
6,B6,0.205
7,B7,0.239

# Molecular target: T1, human PACAP38
# Assay: inhibition of 100 nM biotin-PACAP38 binding to PC-12 cells, TRF
# Procedure: To identify antibodies that block PACAP38 binding to PAC1-R-expressing cells, adherent PC-12 cells (ATCC, Manassas, Va.) expressing PAC1-R were used in a Europium-based PAC1-R expressing cells binding assay.
# Antibody solutions were incubated with N-terminal biotinylated PACAP38 at 10× the final concentration (100 nM or 30 nM) for 1 hr, then added to PC-12 cells that were plated 24 hrs. prior in black clear bottom 96 well plates (COSTAR™, Corning Incorporated, Corning, N.Y.) and further incubated for 1 hr at room temperature. After three washes, the cells were incubated with 20 μl Europium-labeled streptavidin (PerkinElmer, Waltham, Mass.) for 1 hr at room temperature. Cells were washed three times, then 20 μl DELFIA® Enhancement solution (PerkinElmer, Waltham, Mass.) was added to each well and incubated for 15 minutes with gentle shaking. Plates were read (Time Resolved Fluorescence (“TRF”)) on SPECTRAMAX® (Molecular Devices, Sunnyvale, Calif.) plate reader.
# FIGS. 14A-14BB are representative of the inhibition curves obtained by this method (results are shown for Ab1, Ab2, Ab3, Ab4, Ab5, Ab6, Ab7, Ab8, Ab9, Ab10, Ab11, Ab12, Ab13, Ab14, Ab15, Ab16, Ab17, Ab18, Ab19, Ab1.H, Ab10.H, Ab22, Ab23, Ab3.H, Ab4.H, Ab5.H, Ab9.H, and Ab12.H, respectively) wherein the PAC1-R expressing cells were PC-12 cells.
row,Binder,IC50 [nM]
1,B1,36.7
2,B2,162
3,B3,28.6
4,B4,27.3
5,B5,30.6
6,B6,33.1
7,B7,16.3

# Molecular target: T1, human PACAP38
# Assay: HTRF binding, biotin-PACAP38
# Procedure: In parallel, 10 μl of an antibody dilution series (highest final concentration of 100 nM) were incubated with 10 μl of N-terminal or C-terminal biotinylated PACAP38 (35 nM final) alone, or in combination with either PACAP27 (350 nM final) or VIP (350 nM final), i.e., 10× PACAP27 or 10×VIP, respectively, in a HTRF plate. 20 μl of Eu³⁺ cryptate labeled anti-hu Fc donor and 20 μl of d2-labeled streptavidin acceptor were added to each well and incubated for 1 hour at room temperature. Fluorescence was measured at 620 and 665 nm with a delay of 300 μsec.
# EC₅₀ values, i.e. the concentration of an antibody that yields a response halfway between the baseline and the maximum value within a specified time period, were computed for each antibody based upon their binding curves and are shown in Table 1 below. […] A humanized form of antibody Ab1 was produced and is identified by an appended “.H”, i.e., Ab1.H, and it also bound PACAP38 with high affinity.
row,Binder,EC50 [nM]
1,B1,0.62
2,B2,0.43
3,B3,0.66
4,B4,0.68
5,B5,0.48
6,B6,0.46
7,B7,0.6

# Molecular target: T1, human PACAP38
# Assay: SPR, Ab immobilised
# Procedure: (§1) Binding affinities of monoclonal antibodies for human PACAP were estimated using SPR on the PROTEON™ XPR36 (Bio-Rad, Hercules, Calif.). Antibody was immobilized to the surface of general amine coupling (“GLC” or “GLM”) Chips (Bio-Rad, Hercules, Calif.). A dilution series of human PACAP38 (SEQ ID NO: 1241) prepared in 1×PBST Buffer (4.3 mM Na Phosphate, 1.4 mM K Phosphate, 135 mM NaCl, 2.7 mM KCl 0.05% Polysorbate-20) purchased from Teknova (Cat# P1192, Teknova, Hollister, Calif.) and supplemented with 0.25 M arginine (from J.T. BAKER®), 0.2 mg/ml BSA (Jackson Immuno Research Labs, West Grove, Pa.), and 0.005% sodium azide (VWR International, Radnor, Pa.) with the pH adjusted to 7 was used to query the antibodies. Antigen (ranging from 1.23 nM to 100 nM) was typically run sequentially with association times of 2-4 minutes and dissociation times of 3-120 minutes grouped with the PROTEON™ Manager Software (v3.1.0.6 (Bio-Rad, Hercules, Calif.)) and fitted using a 1:1 Langmuir binding model. Surfaces were regenerated between analyte queries using 0.85% Phosphoric Acid.
Binder,Kd [nM],koff [s⁻¹],kon [M⁻¹ s⁻¹]
B1,0.05,2.7e-05,530000
B2,0.093,2.5e-05,270000
B3,0.22,7.2e-05,330000
B4,≤ 0.011,≤ 1e-05,910000
B5,≤ 0.023,≤ 1e-05,430000
B6,≤ 0.02,≤ 1e-05,500000
B7,≤ 0.041,≤ 1e-05,240000

# Molecular target: T2, human VIP
# Assay: SPR, Ab immobilised
# Procedure: [The procedure below names another target; the source says it served here with some conditions changed.] as §1
Binder,Kd [nM],koff [s⁻¹],kon [M⁻¹ s⁻¹]
B1,820,0.13,160000
B2,1000,0.28,280000
B3,120,0.021,170000
B4,260,0.096,360000
B5,400,0.12,310000
B6,55,0.017,310000
B7,7200,0.86,120000

# Molecular target: T3, human PACAP27
# Assay: SPR, Ab immobilised
# Procedure: [The procedure below names another target; the source says it served here with some conditions changed.] as §1
Binder,Kd [nM],koff [s⁻¹],kon [M⁻¹ s⁻¹]
B1,0.17,7.8e-05,470000
B2,0.31,0.00013,420000
B3,0.51,0.0002,390000
B4,0.035,2.9e-05,820000
B5,≤ 0.023,≤ 1e-05,440000
B6,≤ 0.027,≤ 1e-05,370000
B7,0.096,2.4e-05,250000

# Molecular target: T1, human PACAP38
# Assay: cell-based or functional assay
# Remark: another data set of the same source
row,Binder,"IC50, 0.1 nM PACAP38-induced PAC1-R mediated cAMP increase [nM]"
1,B1,0.162
2,B2,0.101
3,B3,0.34
4,B4,0.212
5,B5,0.118
6,B6,0.0977
7,B7,0.327

# Molecular target: T3, human PACAP27
# Assay: cell-based or functional assay
row,Binder,"IC50, 0.1 nM PACAP27-induced PAC1-R mediated cAMP increase [nM]"
1,B1,0.155
2,B2,0.0874
3,B3,0.0769
4,B4,0.192
5,B5,0.0916
6,B6,0.0776
7,B7,0.353

# Molecular target: T1, human PACAP38
# Assay: cell-based or functional assay
# Remark: another data set of the same source
row,Binder,"IC50, 5 nM PACAP38-induced human VPAC1-R mediated cAMP increase [nM]"
1,B1,3.71
2,B2,0.827
3,B3,0.943
4,B4,3.53
5,B5,0.911
6,B6,0.78
7,B7,0.721
